Source: the DeepSol protein solubility set

Test: soluble on expression in E. coli; label from the status in PepcDB or PDB records

Sequence	soluble on expression in E. coli
MHHHHHHSSGRENLYFQGIRMSQILEPRSEEDWTAHRTRIVCTMGPACWNVDTLVKMIDAGMNVCRLNFSHGDHETHARTVQNIQEAMKQRPEARLAILLDTKGPEIRTGFLKDHKPITLQQGATLKIVTDYNLIGDETTIACSYGALPQSVKPGNTILIADGSLSVKVVEVGSDYVITQAQNTATIGERKNMNLPNVKVQLPVIGEKDKHDILNFGIPMGCNFIAASFVQSADDVRYIRGLLGPRGRHIRIIPKIENVEGLVNFDEILAEADGIMIARGDLGMEIPPEKVFLAQKMMIAKCNVVGKPVITATQMLESMIKNPRPTRAEAADVANAVLDGTDCVMLSGETANGEFPVITVETMARICYEAETCVDYPALYRAMCLAVPPPISTQEAVARAAVETAECVNAAIILALTETGQTARLIAKYRPMQPILALSASESTIKHLQVIRGVTTMQVPSFQGTDHVIRNAIVVAKERELVTEGESIVAVHGMKEEVAGSSNLLKVLTVE	soluble
MHHHHHHSSGVDLGTENLYFQSMAKSAEVKLAIFGRAGVGKSALVVRFLTKRFIWEYDPTLESTYRHQATIDDEVVSMEILDTAGQEDTIQREGHMRWGEGFVLVYDITDRGSFEEVLPLKNILDEIKKPKNVTLILVGNKADLDHSRQVSTEEGEKLATELACAFYECSACTGEGNITEIFYELCREVRRRRMVQ	soluble
MHHHHHHSSGVDLGTENLYFQSMEETEKWMEEAMHMAKEALENTEVPVGCLMVYNNEVVGKGRNEVNQTKNATRHAEMVAIDQVLDWCRQSGKSPSEVFEHTVLYVTVEPCIMCAAALRLMKIPLVVYGCQNERFGGCGSVLNIASADLPNTGRPFQCIPGYRAEEAVEMLKTFYKQENPNAPKSKVRK	soluble
MHHHHHHSSGVDLGTENLYFQSMENRELTYITNSIAEAQRVMAAMLADERLLATVRKVADACIASIAQGGKVLLAGNGGSAADAQHIAGEFVSRFAFDRPGLPAVALTTDTSILTAIGNDYGYEKLFSRQVQALGNEGDVLIGYSTSGKSPNILAAFREAKAKGMTCVGFTGNRGGEMRELCDLLLEVPSADTPKIQEGHLVLGHIVCGLVEHSIFGKQ	soluble
MHHHHHHSSGVDLGTENLYFQSMGAASLDVIQEVEYVKEEAKMVYLLECLQKTPPPVLIFAEKKADVDAIHEYLLLKGVEAVAIHGGKDQEERTKAIEAFREGKKDVLVATDVASKGLDFPAIQHVINYDMPEEIENYVHRIGRTGCSGNTGIATTFINKACDESVLMDLKALLLEAKQKVPPVLQVLHCG	soluble
MHHHHHHSSGVDLGTENLYFQSMINSFYAFEVKDAKGRTVSLEKYKGKVSLVVNVASDCQLTDRNYLGLKELHKEFGPSHFSVLAFPCNQFGESEPRPSKEVESFARKNYGVTFPIFHKIKILGSEGEPAFRFLVDSSKKEPRWNFWKYLVNPEGQVVKFWRPEEPIEVIRPDIAALVRQVIIKKKEDL	soluble
MHHHHHHSSGVDLGTENLYFQSMNGPEDLPKSYDYDLIIIGGGSGGLAAAKEAAQYGKKVMVLDFVTPTPLGTRWGLGGTCVNVGCIPKKLMHQAALLGQALQDSRNYGWKVEETVKHDWDRMIEAVQNHIGSLNWGYRVALREKKVVYENAYGQFIGPHRIKATNNKGKEKIYSAERFLIATGERPRYLGIPGDKEYCISSDDLFSLPYCPGKTLVVGASYVALECAGFLAGIGLDVTVMVRSILLRGFDQDMANKIGEHMEEHGIKFIRQFVPIKVEQIEAGTPGRLRVVAQSTNSEEIIEGEYNTVMLAIGRDACTRKIGLETVGVKINEKTGKIPVTDEEQTNVPYIYAIGDILEDKVELTPVAIQAGRLLAQRLYAGSTVKCDYENVPTTVFTPLEYGACGLSEEKAVEKFGEENIEVYHSYFWPLEWTIPSRDNNKCYAKIICNTKDNERVVGFHVLGPNAGEVTQGFAAALKCGLTKKQLDSTIGIHPVCAEVFTTLSVTKRSGASILQAGCGG	soluble
MHHHHHHSSGVDLGTENLYFQSMRLLRASGRTPEAVQKLLEQGLRHSQDLAFLSMLNDIAAVPATAMPFRGYAVLGGERGGPEVQQVPAGERPLWFICSGMGTQWRGMGLSLMRLDRFRDSILRSDEAVKPFGLKVSQLLLSTDESTFDDIVHSFVSLTAIQIGLIDLLSCMGLRPDGIVGHSLGEVACGYADGCLSQEEAVLAAYWRGQCIKEAHLPPGAMAAVGLSWEECKQRCPPGVVPACHNSKDTVTISGPQAPVFEFVEQLRKEGVFAKEVRTGGMAFHSYFMEAIAPPLLQELKKVIREPKPRSARWLSTSIPEAQWHSSLARTSSAEYNVNNLVSPVLFQEALWHVPEHAVVLEIAPHALLQAVLKRGLKPSCTIIPLMKKDHRDNLEFFLAGIGRLHLSGIDANPNALFPPVEFPAPRGTPLIS	soluble
MHKIRSHSKYIIPRLNKIVEEGDADAVGFEFPVESFKFLE	not soluble
MHLTCKNGEIKTIMWSNISEQFPVTGYSYWAVGVDITHLKAIEEQLKQQTSELELIFKALPDLCFLTEDDGTIIDYKAGSPTKFYVPAEAFMGKKFYEVLPTSVAQQFQEAINQVKEKGTNVIVEYPLTLNGSIDFFEARCLPLLHDKIMIIVRDITERKKTEELLNKSDTLAAIGQLAAGVAHEVRNPLTVIKGFIQLFQINKEDQERYFDLMLSEIERIEAILQEFLSIAKTDEINTEKKNIYQIFKNVVSLMNTKAIMTNIQVELFTGDKDIIIECSENQLKQVFINILQNSIEAMPNGGGISIHIKEINDDGVIIHVIDEGIGIPEERIKRLGEPFYSTKEKGTGIGLMLSYKIIESHQGTISIRSEVGVGTTVTIYLPKVLNKQSLSNCDDKCIAIRTSSNS	not soluble
MHNVVITAAVRSPIGTFGGALKNVTPVELAVPVLQEAVKRGGVEPHEVDEVILGHCIQRTDEANTARTAALAAGFPDTVTGYTIQRQCSSGMQAIMSAAMQIQLGVSEVVVAGGVEAMSSSPYALKQHRWGQRLQHGEIRDTVWEVLEDPIHHIMMGETAENLVEQYEITREEQDEVALRSHTLALKAIESGYFDDQIVPITIKERRKEVVFSKDEHPRADITAEKLAGLKPAFRKDGSVTAGNASGLNDGSAVLVLMSEEKAKEKGLQPLARIVGYSVAGVDPKIMGIGPAPAIRKGLEKVDWSLEDADLLEINEAFAAQYLAVEKELGLDREKVNVNGSGVGLGHPIGCTGARITVSLIHELKRRGLEKGIASLCVGGGIGVALFIEAL	not soluble
MHNYLDFEKPISDLEGKILELKKLASEDESVNTSDEIARLEGRVRDAMVEIYSKLSPWQKTQVARHPSRPHFLDYASRLFTEFTPLAGDRNFANDDAIQAGLARFHGTPVAVIGQEKGNDTKSRIKHNFGSPRPEGYRKATRIMEMADRFGLPLITLVDTAGAYPGVNAEERGQAEAIARSTEMCLNVKVPIVTVVIGEGGSGGAIAIATGNRVYMLEHAIYSVISPEGAASILWRDSTRAKEAASNMKITAEDLKSLGVIDGIIPEPVGGAHRDPDAVISRTETVIGDALKELSARNGDELRADRRQKYLNIGRNL	not soluble
MHPALKYMRQDRLPHIFCSGCGNGIVMNCFLKAIEELNIKPEDYIAVSGIGCSSRVPGYLYCDSLHTTHGRPIAFATGIKIARPDKHVVVFTGDGDLAAIGGNHFIHGCRRNIDLTVICINNNIYGMTGGQVSPTTPYGKKATTAPYGSIENTMDLCKMAIAAGATYVARWTTAHPIQLVRSIKKGIQKKGFAFIEVVSQCPTYYGRFNISRKPADMIKFLKENSIHLNKAKDMSEEELNGKIVVGEFLDIEKPEFVEELHKLIEKLKSE	not soluble
MHPPIKIQTILLFILTTVHCSAKRLPQIYWNSTNPLVERYAAIGDTLDIVCPFFDENSDELTEQSIIYRVTEEEYENCERRSKAKELGRCTQPYQEEKLKVAFRLMSPNPSGLDYRPGVTYYFISTSTGSRKGLYNEQGGLCASHNLKMVIHITDRNGDIGPHHHRHHHKKTTTTTTTSTSTSTPKTIPPVVEMDSSAEKLWEQFYEKVMPIDNTWPEITRGERVTLYQGNKKDEYEQVPAEVVDFEIHEIGDVESLYSSSGRLRYVLLLPALLLLRIF	not soluble
MHQFTSKQDFCHWFNQFQHPQLVENWADIHGVVTITAQGEVKITLPFASNELQRTLQEWIQQQQAFKAVAAFPYHIELGVKALETQVSNAVKGVKNIIAVSSAKGGVGKSTTAVNLALAIAQSGAKVGLLDADIYGPSVPMMLGQEDAKPEVRDGKWMEPIFAHGIYTHSIGYLVNKSEAAIWRGPMASKALAQLLNETDWPELDYLVIDMPPGTGDIQLTLSQQIPVTGTVLVTTPQDLALADARKGAAMFNKVNVPVVGVVENMSYHICSQCGATEHIFGMGGAEKMSQEFGLALLGQIPLHISMREDIDAGVPTVVRRPDSEHSGYYKQLADRVCSTMFWQGKAKPDAISFTMVNLEHHHHHH	not soluble
MHSVPSTGFPQSEFSGPFWTGRGVACARPNRYVWTARPSDQSSRRMSTSFSRRLRRLQSQKETALCVGLDPVPARFPPSLQDGRLRTDAVRAFCTTIVEATAPYACAFKPNFAFFEALGPAGLTVLDQVVTTIPDDCLVLGDAKRGDIGHSARHYAASIYEELGLDACTVSPYLGRDSVMPFLEHEGTCTFVLARTSNDGAADLQEACTCDGTPLYRHVARRVQAWNADAPGGAGLVVGATAPAALQDLRSLCPSLPFLVPGVGAQGGDAAAVMDAAATDEGPVLVNSSRSILYASEGPNYANAAADAARALRDALNGGASSSRGAPSPPALEHHHHHH	soluble
MHTIPITTDSAASWDWPLQHNDGVVKVTNTSEKFEVGLDAGFFGPNDIDVKVNGIEIIIHLRHDNRPTEYGIVNREVHRTYKLPEDVDPSTVRSHLNSSGVLTITANKL	not soluble
MHVALHTVRMYPRNTSMVAIPSRELSPRRDGFRELLETNYQKRDLVHLTAGSVVPLLKNSIWLVVRGMVKLGAVSVHGDELLLGLAGPNEPFGEPLSTVEAYEAVALSDCDLLCLSANEVEQAPQLALAMMDAIGARYRQAEYMLALLGLRRVEERVRGFLEMLAQDYGQPCDDGLRLNLRLTHQEMASALSTTRVTVTRVIGLLRDEGWLKIDAQRHLVIAHLPRR	not soluble
MIADWLEQNGYPISSQVLKTEMSGNYMESAEKHVENGEKIDNLLRSQLKIDIRDGTGDDFERKSIKSIGAGRPFAKINMVDKQRAPLKITPLSDEEFRKTMRKRMEMERERLARLSNQAEDDSDDSSSSSDSSTSSASSSSEEKLTFSDILGKPTAAGAEKMIELSQIPNAWGPSKSALVTDDVASTSDPLPAIFNAHLPPLSMGRPPLTKSAKSREIDAIFGSDNVDYDLEDFEQDGVAKKKSILPMEKKKEEAKPKEQELVEPLVLSEGESIDELEDFDTGLLSSGGSDYSF	not soluble
MIAGGFGAGKTTAVGAVSEITPLSTEEYLTEASADVDSLAGLASKRTTTVAFDFGRLSLPDAPMPLELFLFGTPGQDRFVDLWYDLSRGAVGAVVLVDTRRLESSFTPVSFFEDIGLPFVVAVNRFDGAHRYHPEQVRAALELPAAVPVVTCDAREPNHVAGVLLALVDHAVNCAATTNRAGHTPSTTLQDALEHHHHHH	not soluble
MIDKQSGIPIYIQIQSEIKKKMEDGVWKVGTSIPAERQLAEMFHVSRMTVRQAIQGLVDDNILQRRVGAGTFIAEKKLTERLEAVTSFTNLMLQEGKVPSTRIVSYGIRPASTQEQEALQLPENSNVMKIERIRYGDRVPILYEVAAIPEKIASLLTKEDIMDSLYKAIELKLGQPIGEAEQIMEASLVSEKIAPYLDVKLGSPVMKLRQITTLEDGRPFEFTRSQYVGSRFQFVARIKQ	not soluble
